Results published in PMC9582194, “The effect of helix-inducing constraints and downsizing upon a transcription block survival-derived functional cJun antagonist” (Cell Reports. Physical Science, 2022).
Positions of bridges follow the written chain, without caps; N, C: chain ends. Residues, ends and D or L forms follow the SMILES beside them.

B1: HW23 (peptide)
peptide: Ac-EAEELVVEEKVLEDEIEQLEERNYALRKEIEDLQKQ-NH2
modifications: lactam 10-14
SMILES: CC[C@H](C)[C@H](NC(=O)[C@H](CCC(=O)O)NC(=O)[C@H](CCCCN)NC(=O)[C@H](CCCNC(=N)N)NC(=O)[C@H](CC(C)C)NC(=O)[C@H](C)NC(=O)[C@H](Cc1ccc(O)cc1)NC(=O)[C@H](CC(N)=O)NC(=O)[C@H](CCCNC(=N)N)NC(=O)[C@H](CCC(=O)O)NC(=O)[C@H](CCC(=O)O)NC(=O)[C@H](CC(C)C)NC(=O)[C@H](CCC(N)=O)NC(=O)[C@H](CCC(=O)O)NC(=O)[C@@H](NC(=O)[C@H](CCC(=O)O)NC(=O)[C@@H]1CC(=O)NCCCC[C@H](NC(=O)[C@H](CCC(=O)O)NC(=O)[C@H](CCC(=O)O)NC(=O)[C@@H](NC(=O)[C@@H](NC(=O)[C@H](CC(C)C)NC(=O)[C@H](CCC(=O)O)NC(=O)[C@H](CCC(=O)O)NC(=O)[C@H](C)NC(=O)[C@H](CCC(=O)O)NC(C)=O)C(C)C)C(C)C)C(=O)N[C@@H](C(C)C)C(=O)N[C@@H](CC(C)C)C(=O)N[C@@H](CCC(=O)O)C(=O)N1)[C@@H](C)CC)C(=O)N[C@@H](CCC(=O)O)C(=O)N[C@@H](CC(=O)O)C(=O)N[C@@H](CC(C)C)C(=O)N[C@@H](CCC(N)=O)C(=O)N[C@@H](CCCCN)C(=O)N[C@@H](CCC(N)=O)C(N)=O
notes: cyclized form of the pair HW22/HW23; NΔ20 CΔ7; source: synthetic peptide (Fmoc SPPS, on-resin lactamization, RP-HPLC purified)
B2: HW29 (peptide)
peptide: Ac-EAEELVVEEDVLEEEIEQLEERNYALRKEIKDLQDQ-NH2
modifications: lactam 31-35
SMILES: CC[C@H](C)[C@H](NC(=O)[C@H](CCC(=O)O)NC(=O)[C@H](CCCCN)NC(=O)[C@H](CCCNC(=N)N)NC(=O)[C@H](CC(C)C)NC(=O)[C@H](C)NC(=O)[C@H](Cc1ccc(O)cc1)NC(=O)[C@H](CC(N)=O)NC(=O)[C@H](CCCNC(=N)N)NC(=O)[C@H](CCC(=O)O)NC(=O)[C@H](CCC(=O)O)NC(=O)[C@H](CC(C)C)NC(=O)[C@H](CCC(N)=O)NC(=O)[C@H](CCC(=O)O)NC(=O)[C@@H](NC(=O)[C@H](CCC(=O)O)NC(=O)[C@H](CCC(=O)O)NC(=O)[C@H](CCC(=O)O)NC(=O)[C@H](CC(C)C)NC(=O)[C@@H](NC(=O)[C@H](CC(=O)O)NC(=O)[C@H](CCC(=O)O)NC(=O)[C@H](CCC(=O)O)NC(=O)[C@@H](NC(=O)[C@@H](NC(=O)[C@H](CC(C)C)NC(=O)[C@H](CCC(=O)O)NC(=O)[C@H](CCC(=O)O)NC(=O)[C@H](C)NC(=O)[C@H](CCC(=O)O)NC(C)=O)C(C)C)C(C)C)C(C)C)[C@@H](C)CC)C(=O)N[C@H]1CCCCNC(=O)C[C@@H](C(=O)N[C@@H](CCC(N)=O)C(N)=O)NC(=O)[C@H](CCC(N)=O)NC(=O)[C@H](CC(C)C)NC(=O)[C@H](CC(=O)O)NC1=O
notes: cyclized form of the pair HW28/HW29; NΔ20 CΔ7; source: synthetic peptide (Fmoc SPPS, on-resin lactamization, RP-HPLC purified)
B3: HW30 (peptide)
peptide: Ac-EAEELVVEEKVLEDEIEQLEERNYALRKEIKDLQDQ-NH2
modifications: lactam 10-14, 31-35
SMILES: CC[C@H](C)[C@H](NC(=O)[C@H](CCC(=O)O)NC(=O)[C@H](CCCCN)NC(=O)[C@H](CCCNC(=N)N)NC(=O)[C@H](CC(C)C)NC(=O)[C@H](C)NC(=O)[C@H](Cc1ccc(O)cc1)NC(=O)[C@H](CC(N)=O)NC(=O)[C@H](CCCNC(=N)N)NC(=O)[C@H](CCC(=O)O)NC(=O)[C@H](CCC(=O)O)NC(=O)[C@H](CC(C)C)NC(=O)[C@H](CCC(N)=O)NC(=O)[C@H](CCC(=O)O)NC(=O)[C@@H](NC(=O)[C@H](CCC(=O)O)NC(=O)[C@@H]1CC(=O)NCCCC[C@H](NC(=O)[C@H](CCC(=O)O)NC(=O)[C@H](CCC(=O)O)NC(=O)[C@@H](NC(=O)[C@@H](NC(=O)[C@H](CC(C)C)NC(=O)[C@H](CCC(=O)O)NC(=O)[C@H](CCC(=O)O)NC(=O)[C@H](C)NC(=O)[C@H](CCC(=O)O)NC(C)=O)C(C)C)C(C)C)C(=O)N[C@@H](C(C)C)C(=O)N[C@@H](CC(C)C)C(=O)N[C@@H](CCC(=O)O)C(=O)N1)[C@@H](C)CC)C(=O)N[C@H]1CCCCNC(=O)C[C@@H](C(=O)N[C@@H](CCC(N)=O)C(N)=O)NC(=O)[C@H](CCC(N)=O)NC(=O)[C@H](CC(C)C)NC(=O)[C@H](CC(=O)O)NC1=O
notes: double lactamized peptide; NΔ20 CΔ7; also called double lactam peptide HW30; source: synthetic peptide (Fmoc SPPS, on-resin lactamization, RP-HPLC purified)
B4: HW4 (peptide)
peptide: Ac-EAEELVVEEDVLEEEIEQLEERNYALRKEIEDLQKQLEKL-NH2
notes: truncation NΔ20 CΔ3 of HW1; source: synthetic peptide (Fmoc SPPS, RP-HPLC purified)

How the values were obtained:
Stability in human serum = details: human serum (Merck), 75 μL of 600 μM peptide stock added to 1425 μL serum, 37 °C, 3-day endpoint; acetonitrile:water precipitation; LC-MS, sum of two largest charge-state peaks; average of three repeats
cJun [1] = molecular target: T1, cJun (Homo sapiens, UniProt P05412); assay: CD thermal denaturation of peptide-cJun heterodimers (Tm); type: binding; details: CD ellipticity at 222 nm, 1-90 °C; peptide (5 μM)/cJun (5 μM); 20 mM potassium phosphate, 150 mM potassium fluoride, 2 mM TCEP pH 7.4; two-state fit; duplicate experiments, ± one SD
T1 construct: The same 60 amino acid cJun construct, encompassing the entire bZIP domain, was used for all experiments
T1 sequence (P05412 252-315 limits assumed): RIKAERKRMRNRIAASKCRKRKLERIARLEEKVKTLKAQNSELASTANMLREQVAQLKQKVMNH
Protocol: (§1) The precise nature of the interaction between the cJun DBD and the rationally designed acidic domain of HW1 is unknown. HW1 was, therefore, iteratively truncated from the N terminus (HW2–6) to investigate the effect on cJun binding and cJun/TRE DNA antagonism (Table 1). Peptide fraction helicity (fH) was determined by quantifying the circular dichroism (CD) signal at 222 nm of peptide-only samples (Figure S1). Thermal denaturation experiments were then used to determine the melting temperature (Tm) of peptide-cJun heterodimers, which serves as an approximate measure of target engagement. CD was also used to investigate the functional activity of peptides in antagonizing the cJun/TRE DNA interaction. […] This provides a clear and direct measurement of the proportion of DNA bound to cJun. As antagonist peptide concentration was increased, the peak shifted to overlay with that of free TRE-DNA (Figure S4). For each peptide, the data were fit to a Hill equation to determine half-maximal inhibitory concentration (IC50) values, specific to these assay conditions, providing a clear comparative measure of antagonism. The same 60 amino acid cJun construct, encompassing the entire bZIP domain, was used for all experiments regardless of antagonist peptide length.
Figure 2 Iterative N-terminal truncation of HingeW reduces cJun binding and antagonism (A) Thermal denaturation profiles for iteratively truncated peptide (5 μM)/cJun (5 μM) heterodimer samples. (B) CD antagonism data produced by monitoring the shift in a DNA specific peak to provide a direct readout of cJun-DNA binding. Peptides are added at the indicated concentrations to a pre-incubated mixture of cJun (20 μM) and TRE DNA (5 μM). Data points were averaged from triplicate experiments, and error bars indicate one SD. The data were fitted to a Hill equation to determine IC50 values. Some higher peptide concentration data points for HW6 and HW9 are not shown in this plot for clarity.

[2] = Peptide fraction helicity by CD at 222 nm, peptide-only samples; type: physicochemical; details: CD signal at 222 nm of peptide-only samples; pH 7.4 phosphate/KF/TCEP buffer; duplicate experiments
Protocol: as §1

cJun [3] = molecular target: T1, cJun; assay: Isothermal titration calorimetry (ITC) with cJun; type: binding; details: 25 °C, pH 7.4, one-site model, average of two experiments ± one SD
Description: A selection of peptides from this work were investigated by isothermal titration calorimetry (ITC) to quantify the thermodynamic parameters of their interaction with target cJun (Figure 4 and S6; Table 2). The determined equilibrium binding constant (KD) values follow from the CD data above and can be rationalized in terms of the truncation or lactamization they represent. […] All interactions investigated were dominated by the enthalpic component, with a smaller unfavorable entropic contribution, other than for HW8/cJun, which is the weakest interaction. The unfavorable entropic component was largest for the HW30/cJun interaction and smallest for HW23/cJun. This indicates the introduction of lactams produces a more unfavorable entropic component, perhaps a surprising result as helix-inducing lactamization is typically considered to increase affinity through entropic pre-organization. However, the larger increase in the favorable enthalpic component produces an increase in binding affinity due to lactamization. This is likely to be caused by a combination of enhanced intermolecular contacts and ordering that are opposed by unfavorable desolvation effects.
Two-μL injections of antagonist peptide at 25–200 μM were injected into the cell containing cJun at 2.5–20 μM at 25°C. Microcal Control and Analysis software were used to record and analyze the heat change upon addition and fit the data to a one-site binding model to extract the enthalpy change of binding (ΔH) and the KD, from which the free energy change of binding (ΔG) and the entropy change of binding (ΔS) were calculated.[40] Control experiments involved the injection of the antagonist peptide sample into the cell containing ITC buffer alone to determine the heat of dilution, which was subtracted. Thermodynamic parameters are presented as an average of two independent experiments with errors given as one SD.

[4] = molecular target: T2, cJun (60 amino acid construct encompassing the entire bZIP domain) (UniProt P05412 252-315); assay: cell-based or functional assay
T2 sequence (P05412 252-315): as the sequence (P05412 252-315 limits assumed) above

[5] = molecular target: T2, cJun (60 amino acid construct …); assay: ITC; antagonist peptide at 25–200 μM injected into cJun at 2.5–20 μM in the cell, 25°C; 20 mM potassium phosphate, 150 mM potassium fluoride, 2 mM TCEP, pH 7.4; one-site binding model; two independent experiments; details: both partners purified
[6] = molecular target: T2, cJun (60 amino acid construct …); assay: CD thermal denaturation; peptide (5 μM) with cJun (5 μM); ellipticity at 222 nm, 1°C to 90°C; 20 mM potassium phosphate, 150 mM potassium fluoride, 2 mM TCEP, pH 7.4; two-state fit gives the Tm of the peptide-cJun heterodimer; duplicate experiments; details: both partners purified

Molecule | peptide remaining in human serum, peak intensity relative to starting value (Stability in human serum) | Tm of peptide-cJun heterodimer (cJun [1]) | fH, peptide fraction helicity [2] | ΔH (cJun [3]) | Stoichiometry, n (cJun [3]; peptide 25-200 μM injected into cJun 2.5-20 μM) | IC50 CD: peptide added to pre-incubated cJun (20 μM) and TRE DNA (5 μM); blocks cJun/TRE DNA binding [4] | Kd [5] | dH [5] | stoichiometry N [5] | Tm of the peptide-cJun heterodimer [6]
CC[C@H](C)[C@H](NC(=O)[C@H](CCC(=O)O)NC(=O)[C@H](CCCCN)NC(=O)[C@H](CCCNC(=N)N)NC(=O)[C@H](CC(C)C)NC(=O)[C@H](C)NC(=O)[C@H](Cc1ccc(O)cc1)NC(=O)[C@H](CC(N)=O)NC(=O)[C@H](CCCNC(=N)N)NC(=O)[C@H](CCC(=O)O)NC(=O)[C@H](CCC(=O)O)NC(=O)[C@H](CC(C)C)NC(=O)[C@H](CCC(N)=O)NC(=O)[C@H](CCC(=O)O)NC(=O)[C@@H](NC(=O)[C@H](CCC(=O)O)NC(=O)[C@@H]1CC(=O)NCCCC[C@H](NC(=O)[C@H](CCC(=O)O)NC(=O)[C@H](CCC(=O)O)NC(=O)[C@@H](NC(=O)[C@@H](NC(=O)[C@H](CC(C)C)NC(=O)[C@H](CCC(=O)O)NC(=O)[C@H](CCC(=O)O)NC(=O)[C@H](C)NC(=O)[C@H](CCC(=O)O)NC(C)=O)C(C)C)C(C)C)C(=O)N[C@@H](C(C)C)C(=O)N[C@@H](CC(C)C)C(=O)N[C@@H](CCC(=O)O)C(=O)N1)[C@@H](C)CC)C(=O)N[C@H]1CCCCNC(=O)C[C@@H](C(=O)N[C@@H](CCC(N)=O)C(N)=O)NC(=O)[C@H](CCC(N)=O)NC(=O)[C@H](CC(C)C)NC(=O)[C@H](CC(=O)O)NC1=O [HW30] (Ac-EAEELVVEEKVLEDEIEQLEERNYALRKEIKDLQDQ-NH2; lactam 10-14, 31-35) | 56% | – | – | – | – | – | – | – | – | –
Ac-EAEELVVEEDVLEEEIEQLEERNYALRKEIEDLQKQLEKL-NH2 [HW4] | – | 64.1 ± 1.5 °C | 45.5% | -189.95 ± 8.09 kJ/mol | 0.91 ± 0.04 | – | – | – | – | –
B1 | – | – | – | – | – | 74.9 µM | 69.5 nM | -59 kJ/mol | 1.2 | 64 °C
B2 | – | – | – | – | – | 52.7 µM | 86.5 nM | -98.7 kJ/mol | 0.97 | 65 °C
B3 | – | – | – | – | – | 44.9 µM | 9.69 nM | -128 kJ/mol | 1.05 | 63.2 °C
B4 | – | – | – | – | – | 45.4 µM | 91.1 nM | -190 kJ/mol | 0.91 | 64.1 °C
